In US20220073599A1 (Hoffmann-La Roche, published 2022):

Key:
Test in all cases: SPR crossreactivity set-up, Fab captured by anti-Fab antibody, Ang2-RBD injected, 25 C
Mouse ANG2 = biological target: T1, Mouse ANG2 (mouse, UniProt O35608 275-496, limits assumed)
T1 construct: domain: RBD; also called mouse Ang2-RBD
T1 sequence (looked up): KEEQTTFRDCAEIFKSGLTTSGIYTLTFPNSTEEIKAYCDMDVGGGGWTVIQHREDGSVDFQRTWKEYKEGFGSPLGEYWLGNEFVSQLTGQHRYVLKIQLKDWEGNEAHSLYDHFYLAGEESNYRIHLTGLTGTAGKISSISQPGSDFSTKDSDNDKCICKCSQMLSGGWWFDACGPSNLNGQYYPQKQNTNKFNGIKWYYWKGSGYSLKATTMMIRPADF
Description: (§1) An anti-Fab capturing antibody (GE Healthcare 28958325) was immobilized to a Series S Sensor Chip C1 (GE Healthcare BR100535) using standard amine coupling chemistry resulting in a surface density of approximately 800 resonance units (RU). As running and dilution buffer, HBS-P+ (10 mM HEPES, 150 mM NaCl pH 7.4, 0.05% Surfactant P20) was used, the temperature of measurement was 25° C. The tested antibody was captured by injecting a 50 nM solution for 60 sec at a flow of 5 μl/min. Association was measured by injection of Ang2-RBD from the indicated species in various concentrations in solution for 180 sec at a flow of 30 μl/min (0.07 nM-50 nM, 1:3 dilution). The dissociation phase was monitored for up to 600 sec and triggered by switching from the sample solution to running buffer at a flow rate of 30 μl/min. The surface was regenerated by injection of 10 mM Glycine pH 2.1 for 60 s at a flow rate of 30 μl/min. Bulk refractive index differences were corrected by subtracting blank injections and by subtracting the response obtained from the reference flow cell without captured antibody. Curve fitting was performed using the 1:1 Langmuir binding model within the Biacore® evaluation software.
(§2) Crossreactivity to VEGF-A and ANG2 from other species was assessed as described above in “Materials & general methods” section.

Rabbit ANG2 = biological target: T2, Rabbit ANG2 (rabbit, UniProt G1T9B3 281-496)
T2 construct: domain: RBD; also called rabbit Ang2-RBD
T2 sequence: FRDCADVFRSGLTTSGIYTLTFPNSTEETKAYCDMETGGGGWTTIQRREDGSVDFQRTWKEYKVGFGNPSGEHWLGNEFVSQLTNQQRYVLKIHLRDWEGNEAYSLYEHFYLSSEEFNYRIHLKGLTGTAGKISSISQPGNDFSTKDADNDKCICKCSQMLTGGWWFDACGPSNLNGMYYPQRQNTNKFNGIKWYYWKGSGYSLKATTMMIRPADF
Description: as §1, §2

Pig ANG2 = biological target: T3, Pig ANG2 (pig, UniProt Q9BDY7 275-496, limits assumed)
T3 construct: domain: RBD; also called pig Ang2-RBD
T3 sequence (looked up): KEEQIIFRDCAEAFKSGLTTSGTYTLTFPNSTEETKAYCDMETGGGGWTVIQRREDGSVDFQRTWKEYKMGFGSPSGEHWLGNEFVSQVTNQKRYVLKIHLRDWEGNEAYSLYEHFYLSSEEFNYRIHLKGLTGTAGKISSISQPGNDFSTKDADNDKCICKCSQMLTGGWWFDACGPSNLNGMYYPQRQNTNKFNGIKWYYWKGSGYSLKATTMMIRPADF
Description: as §1, §2

Cyno ANG2 = biological target: T4, Cyno ANG2 (cyno, UniProt A0A2K5VNX6 281-496)
T4 construct: domain: RBD; also called cyno Ang2-RBD
T4 sequence: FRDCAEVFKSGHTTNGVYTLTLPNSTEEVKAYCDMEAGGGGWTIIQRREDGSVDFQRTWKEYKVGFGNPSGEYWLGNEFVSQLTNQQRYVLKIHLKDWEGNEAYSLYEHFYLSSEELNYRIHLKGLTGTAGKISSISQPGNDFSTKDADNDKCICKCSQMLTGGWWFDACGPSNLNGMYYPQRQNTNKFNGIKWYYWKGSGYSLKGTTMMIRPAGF
Description: as §1, §2

human Ang2-RBD = biological target: T5, human Ang2-RBD (human, UniProt O15123 275-496, limits assumed)
T5 construct: also called Human ANG2 (SPR); Angiopoietin 2-RBD
T5 sequence: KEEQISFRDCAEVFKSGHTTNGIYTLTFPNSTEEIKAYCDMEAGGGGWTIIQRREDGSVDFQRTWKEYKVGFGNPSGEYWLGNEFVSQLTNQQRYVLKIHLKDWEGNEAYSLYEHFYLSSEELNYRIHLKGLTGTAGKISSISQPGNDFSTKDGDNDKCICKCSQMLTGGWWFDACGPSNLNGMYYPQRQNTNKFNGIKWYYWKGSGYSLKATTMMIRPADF
Description: as §1, §2

Kd (Mouse ANG2): 92 pM | koff (Mouse ANG2): 0.000743 s⁻¹ | kon (Mouse ANG2): 8.11e+06 M⁻¹ s⁻¹ | t1/2 (Mouse ANG2): 0.267 h | Kd (Rabbit ANG2): 5 pM | koff (Rabbit ANG2): 5.33e-05 s⁻¹ | kon (Rabbit ANG2): 9.91e+06 M⁻¹ s⁻¹ | t1/2 (Rabbit ANG2): 3.62 h | Kd (Pig ANG2): 13 pM | koff (Pig ANG2): 0.000105 s⁻¹ | kon (Pig ANG2): 7.82e+06 M⁻¹ s⁻¹ | t1/2 (Pig ANG2): 1.83 h | Kd (Cyno ANG2): 2 pM | koff (Cyno ANG2): 1.56e-05 s⁻¹ | kon (Cyno ANG2): 9.98e+06 M⁻¹ s⁻¹ | t1/2 (Cyno ANG2): 12.3 h | Kd (human Ang2-RBD): 3 pM | koff (human Ang2-RBD): 2.64e-05 s⁻¹ | kon (human Ang2-RBD): 1.02e+07 M⁻¹ s⁻¹ | t1/2 (human Ang2-RBD): 7.28 h
B1: bispecific anti-VEGF-A/anti-ANG2 Fab fragment P1AD9820 (Fab, V domains shown)
VH: SEHLVESGGGLVKPGGSLRLSCATADFFEYDDMSWVRQAPGKGLEWVGSISPKGDHKYLNTKFIGRFTISRDDSKNTLYLQMNSLRAEDTAVYYCARDVGFFDWWGQGTLVTVSS
VL: AIYMHQEPSSLSASVGDRVTITCHGSYWLNSEVAWYQQKPGKAPKLLIFDGDFKVYEVPSRFSGSGSHEDYTLTISSLQPEDFATYYCQQYRYHPYTFGHGTKVEIKR
notes: Bispecific Fab with two paratopes in one VH/VL pair; also called P1AD9820 Fab
